Tested on: Pin1 R14A (SEQ ID NO:2)

Substance: phosphokinase A (PKA)
- MALDI-TOF of partial tryptic digest, mass gain of peptide 69-74: the peak corresponding to residues 69-74 of Pin1 gains ~80 Daltons after treatment with PKA
- proline isomerase activity (protease-coupled assay, rate constant of isomerization): phosphorylation of Pin1 R14A at position 71 by PKA inhibits the ability of the enzyme to isomerizes substrate

Reference: US20060074222
